Positions of bridges follow the written chain, without caps; N, C: chain ends. Non-standard residues stand in square brackets, D forms with d. d2Nal = N[C@H](Cc1ccc2ccccc2c1)C(=O)O; Hyp = O=C(O)[C@@H]1C[C@@H](O)CN1; Nle = CCCC[C@H](N)C(=O)O
Columns and labels:
[1] = biological target: human melanocortin 3 receptor (MC3R) (human, UniProt P41968 1-323); test: cell-based or functional assay
[2] = biological target: human melanocortin 4 receptor (MC4R) (human, UniProt P32245 1-332); test: cell-based or functional assay
human melanocortin 4 receptor (MC4R), sequence (P32245 whole entry): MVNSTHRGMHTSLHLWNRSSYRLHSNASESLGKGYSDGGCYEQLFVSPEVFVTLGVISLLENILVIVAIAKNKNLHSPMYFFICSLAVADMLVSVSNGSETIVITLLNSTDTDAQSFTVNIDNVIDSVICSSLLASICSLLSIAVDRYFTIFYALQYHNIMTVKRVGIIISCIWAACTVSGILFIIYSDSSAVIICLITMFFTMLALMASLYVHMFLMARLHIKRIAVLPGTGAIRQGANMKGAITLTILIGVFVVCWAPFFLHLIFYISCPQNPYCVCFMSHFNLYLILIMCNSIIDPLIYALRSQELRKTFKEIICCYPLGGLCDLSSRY

human melanocortin 3 receptor (MC3R), sequence (P41968 whole entry): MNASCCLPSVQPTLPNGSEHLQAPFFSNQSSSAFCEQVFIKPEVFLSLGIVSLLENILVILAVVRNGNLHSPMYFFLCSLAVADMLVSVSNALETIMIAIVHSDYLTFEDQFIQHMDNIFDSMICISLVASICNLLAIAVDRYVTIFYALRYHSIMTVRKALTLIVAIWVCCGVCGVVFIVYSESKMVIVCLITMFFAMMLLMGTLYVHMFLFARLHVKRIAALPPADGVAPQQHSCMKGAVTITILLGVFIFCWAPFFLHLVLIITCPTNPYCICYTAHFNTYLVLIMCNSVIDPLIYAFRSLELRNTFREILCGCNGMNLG

B1: D4 (peptide)
peptide: Ac-[Nle]D[Hyp][d2Nal]RWPK[dV][dP]-NH2
modifications: lactam 2-8
SMILES: CCCC[C@H](NC(C)=O)C(=O)N[C@H]1CC(=O)NCCCC[C@@H](C(=O)N[C@@H](C(=O)N2CCC[C@@H]2C(N)=O)C(C)C)NC(=O)[C@@H]2CCCN2C(=O)[C@H](Cc2c[nH]c3ccccc23)NC(=O)[C@H](CCCNC(=N)N)NC(=O)[C@@H](Cc2ccc3ccccc3c2)NC(=O)[C@@H]2C[C@@H](O)CN2C1=O
- IC50 (cAMP by HTRF, antagonist dose-response) [1]: > 10 µM
- Max Activation % [1]: 50.1%
- Max Activation % [2]: 21%

B2: D5 (peptide)
peptide: Ac-[Nle]DPH[d2Nal]RWK[dP][dV]-NH2
modifications: lactam 2-8
SMILES: CCCC[C@H](NC(C)=O)C(=O)N[C@H]1CC(=O)NCCCC[C@@H](C(=O)N2CCC[C@@H]2C(=O)N[C@@H](C(N)=O)C(C)C)NC(=O)[C@H](Cc2c[nH]c3ccccc23)NC(=O)[C@H](CCCNC(=N)N)NC(=O)[C@@H](Cc2ccc3ccccc3c2)NC(=O)[C@H](Cc2c[nH]cn2)NC(=O)[C@@H]2CCCN2C1=O
- IC50 (cAMP by HTRF, antagonist dose-response) [1]: > 10 µM
- Max Activation % [1]: 24.6%
- Max Activation % [2]: 41.5%

B3: D2 (peptide)
peptide: Ac-[Nle]DH[d2Nal]RWPK[dV][dP]-NH2
modifications: lactam 2-8
SMILES: CCCC[C@H](NC(C)=O)C(=O)N[C@H]1CC(=O)NCCCC[C@@H](C(=O)N[C@@H](C(=O)N2CCC[C@@H]2C(N)=O)C(C)C)NC(=O)[C@@H]2CCCN2C(=O)[C@H](Cc2c[nH]c3ccccc23)NC(=O)[C@H](CCCNC(=N)N)NC(=O)[C@@H](Cc2ccc3ccccc3c2)NC(=O)[C@H](Cc2c[nH]cn2)NC1=O
- Max Activation % [1]: 31.8%
- Max Activation % [2]: 17.6%

B4: TCMCB02 (peptide)
peptide: Ac-[Nle]DP[d2Nal]RWK[dP][dV]-NH2
modifications: lactam 2-7
SMILES: CCCC[C@H](NC(C)=O)C(=O)N[C@H]1CC(=O)NCCCC[C@@H](C(=O)N2CCC[C@@H]2C(=O)N[C@@H](C(N)=O)C(C)C)NC(=O)[C@H](Cc2c[nH]c3ccccc23)NC(=O)[C@H](CCCNC(=N)N)NC(=O)[C@@H](Cc2ccc3ccccc3c2)NC(=O)[C@@H]2CCCN2C1=O
- IC50 (cAMP by HTRF, antagonist dose-response) [1]: 1.36 µM
- Max Activation % [1]: 101%
- IC50 (cAMP by HTRF, antagonist dose-response) [2]: 0.0571 µM
- Max Activation % [2]: 120%

Binder: Ac-[Nle]DP[d2Nal]RWK[dV][dP]-NH2 (lactam 2-7) [TCMCB07]
- IC50 (cAMP by HTRF, antagonist dose-response) [1]: 0.0434 µM
- Max Activation % [1]: 112%
- IC50 (cAMP by HTRF, antagonist dose-response) [2]: 0.0269 µM
- Max Activation % [2]: 118%

B5: A1 (peptide)
peptide: Ac-[Nle]DP[d2Nal]RWK[dV][dP]-NH2
SMILES: CCCC[C@H](NC(C)=O)C(=O)N[C@@H](CC(=O)O)C(=O)N1CCC[C@H]1C(=O)N[C@H](Cc1ccc2ccccc2c1)C(=O)N[C@@H](CCCNC(=N)N)C(=O)N[C@@H](Cc1c[nH]c2ccccc12)C(=O)N[C@@H](CCCCN)C(=O)N[C@@H](C(=O)N1CCC[C@@H]1C(N)=O)C(C)C
- IC50 (cAMP by HTRF, antagonist dose-response) [1]: 3.66 µM
- Max Activation % [1]: 84.4%
- IC50 (cAMP by HTRF, antagonist dose-response) [2]: 3.61 µM
- Max Activation % [2]: 79.3%

B6: D3 (peptide)
peptide: Ac-[Nle]D[Hyp][d2Nal]RWK[dV][dP]-NH2
modifications: lactam 2-7
SMILES: CCCC[C@H](NC(C)=O)C(=O)N[C@H]1CC(=O)NCCCC[C@@H](C(=O)N[C@@H](C(=O)N2CCC[C@@H]2C(N)=O)C(C)C)NC(=O)[C@H](Cc2c[nH]c3ccccc23)NC(=O)[C@H](CCCNC(=N)N)NC(=O)[C@@H](Cc2ccc3ccccc3c2)NC(=O)[C@@H]2C[C@@H](O)CN2C1=O
- IC50 (cAMP by HTRF, antagonist dose-response) [1]: 0.087 µM
- Max Activation % [1]: 111%
- IC50 (cAMP by HTRF, antagonist dose-response) [2]: 0.0406 µM
- Max Activation % [2]: 117%
